Patent publication US20200138970A1 (Bayer, published 2020)
Positions count from the first letter of the chain named.

T1: human B7H3 on cancer cell lines (human, UniProt Q5ZPR3 29-534)
T1 sequence (looked up): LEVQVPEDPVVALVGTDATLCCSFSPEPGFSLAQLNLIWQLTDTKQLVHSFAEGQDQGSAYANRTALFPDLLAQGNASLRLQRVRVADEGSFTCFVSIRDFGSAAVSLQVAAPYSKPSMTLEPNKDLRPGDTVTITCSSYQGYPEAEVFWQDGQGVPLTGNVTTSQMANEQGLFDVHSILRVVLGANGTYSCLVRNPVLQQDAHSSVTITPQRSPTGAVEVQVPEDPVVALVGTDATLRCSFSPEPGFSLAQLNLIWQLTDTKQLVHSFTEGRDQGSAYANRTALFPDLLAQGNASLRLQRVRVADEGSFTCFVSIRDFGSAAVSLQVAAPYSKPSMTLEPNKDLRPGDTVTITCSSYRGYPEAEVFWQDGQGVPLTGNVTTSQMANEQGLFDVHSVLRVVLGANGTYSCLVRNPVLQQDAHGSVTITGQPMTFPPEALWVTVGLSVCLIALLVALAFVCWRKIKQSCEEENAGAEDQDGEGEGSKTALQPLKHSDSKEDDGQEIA

T2: human B7H2 (RnDSystems, 8206-B7) (human, UniProt O75144 19-258, limits assumed)
T2 construct: Bought protein; His tag implied by anti-His detection
T2 sequence (looked up): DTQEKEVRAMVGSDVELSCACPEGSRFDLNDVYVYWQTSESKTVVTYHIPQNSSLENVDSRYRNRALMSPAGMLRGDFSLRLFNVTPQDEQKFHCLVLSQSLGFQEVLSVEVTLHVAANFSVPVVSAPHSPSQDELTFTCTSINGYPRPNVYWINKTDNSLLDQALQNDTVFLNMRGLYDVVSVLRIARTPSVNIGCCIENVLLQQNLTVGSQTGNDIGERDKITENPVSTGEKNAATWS

T3: human B7H4 (RnDSystems, 6576-B7) (human, UniProt Q7Z7D3 29-258, limits assumed)
T3 construct: Bought protein; His tag implied by anti-His detection
T3 sequence (looked up): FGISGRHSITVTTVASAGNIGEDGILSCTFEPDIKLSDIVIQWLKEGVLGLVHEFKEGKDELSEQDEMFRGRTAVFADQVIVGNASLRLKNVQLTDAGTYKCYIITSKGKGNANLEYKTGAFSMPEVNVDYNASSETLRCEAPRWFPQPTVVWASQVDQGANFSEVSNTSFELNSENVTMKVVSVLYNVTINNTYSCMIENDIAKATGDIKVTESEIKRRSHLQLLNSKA

T4: TPP-3760, B7H3 long, human (R&D Systems 2318-B3/CF) (human, UniProt Q5ZPR3 27-461)
T4 construct: Bought protein; also called B7H3 (RnDSystems, 2318-B3-050/CF); human B7H3
T4 sequence: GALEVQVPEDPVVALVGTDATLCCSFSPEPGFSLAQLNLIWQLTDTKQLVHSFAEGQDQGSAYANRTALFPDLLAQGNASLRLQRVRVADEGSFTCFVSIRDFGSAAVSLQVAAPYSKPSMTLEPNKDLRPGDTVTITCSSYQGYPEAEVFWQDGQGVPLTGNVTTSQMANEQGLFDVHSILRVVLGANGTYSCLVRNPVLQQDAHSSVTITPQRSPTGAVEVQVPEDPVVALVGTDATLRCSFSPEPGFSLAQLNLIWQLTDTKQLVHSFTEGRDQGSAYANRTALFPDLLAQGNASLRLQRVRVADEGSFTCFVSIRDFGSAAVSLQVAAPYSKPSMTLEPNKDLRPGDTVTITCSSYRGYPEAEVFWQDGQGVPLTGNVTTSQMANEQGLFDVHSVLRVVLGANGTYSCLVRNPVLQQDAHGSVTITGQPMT

B1: TPP-6515 (antibody, human IgG1, lambda, V domains shown)
VH: EVQLLESGGGLVQPGGSLRLSCAASGFTFSSYGMHWVRQVPGKGLEWVSAISGSGGTTYYADSVKGRFTISRDNSKNTLYLQMNSLRAEDTAVYYCARGGYHFLFDYWGQGTLVTVSS
VL: QSVLTQPPSASGTPGQRVTISCSGSSSNIGSNTVNWYQQLPGTAPKLLIYRNDQRLLGVPDRFSGSKSGTSASLAISGLRSEDEADYYCQSYDSSLSGWVFGGGTKLTVLG
B2: TPP-6501 (antibody, human IgG1, lambda, V domains shown)
VH: B1 VH with V40A, T57S, G100S, Y101N, H102Y, F103L, L104G, F105M, Y107V
VL: QSVLTQPPSASGTPGQRVTISCSGSSSNIGRNIVNWYQQLPGTAPKLLIYRSNQRPSGVPDRFSGSKSGTSASLAISGLRSEDEADYYCQTWGTGWVFGGGTKLTVLG
B3: TPP-6499 (antibody, human IgG1, lambda, V domains shown)
VH: EVQLLESGGGLVQPGGSLRLSCAASGFTFRDFYMNWIRQAPGKGLEWVSSISASGKYTYYADSVKGRFTISRDNSKNTLYLQMNSLRAEDTAVYYCAREWGYCTNDVCRNWFDPWGQGTLVTVSS
VL: QSVLTQPPSASGTPGQRVTISCSGGYSNVGGNNVNWYQQLPGTAPKLLIYGNSNRPSGVPDRFSGSKSGTSASLAISGLRSEDEADYYCQSYDSSLSGSVFGGGTKLTVLG

Columns and labels:
[1] = biological target: T1, human B7H3 on cancer cell lines; assay: cell-based or functional assay
[2] = biological target: T1, human B7H3 on cancer cell lines; assay: flow cytometry on A498 cells, dose response from 10 ug/mL (1:5 dilution), FITC secondary antibody
Protocol: A dose response curve (1:5 dilution) was generated. Following incubation, 200 μL of ice-cold FACS buffer were pipetted in and the cell suspension was centrifuged at 4° C., 400 g for 4 min. The cell pellet was washed with 300 μL of ice-cold FACS buffer prior to resuspending the pellet obtained in 100 μL of FACS buffer and again incubating for 30 min on ice with secondary antibody (monoclonal anti-kappa light chains FITC antibody, Sigma, No. SAB4700605) in a 1:10 dilution. Subsequently, the cells were washed with ice-cold FACS buffer and adjusted to a cell concentration of 0.5×10⁶ cells/mL before carrying out the flow cytometry using a Guava flow cytometer (Millipore). Propidium iodide (final concentration 1 μg/mL) was used for the live staining. With the aid of the background-corrected geometric mean fluorescence values, the IC50 value of the antibody to be investigated was determined.

[3] = biological target: T2, human B7H2 (RnDSystems, 8206-B7); assay: ELISA, IgG captured on anti-human IgG Fc, antigen 37 ng/ml, anti-His HRP detection
Protocol: (§1) Binding of the antibodies to human B7H3 and to human B7H2 and B7H4 was characterized using ELISAs. […] After washing once with PSB, 0.05% Tween, the plate was blocked with 100% Smart Block (Candor) for one hour at 37° C. The antibody to be tested was then attached to the plate (2 μg/ml IgG in PBS, 0.05% Tween, 10% Smart Block; 1 hour, room temperature). […] After washing three times, the plate was incubated with Amplex Red for 30 minutes and then read.

[4] = biological target: T3, human B7H4 (RnDSystems, 6576-B7); assay: as above
Protocol: as §1

[5] = biological target: T4, TPP-3760, B7H3 long, human (R&D Systems …); assay: as above
Protocol: as §1

Row | Molecule | NCI-H292 CTG (IC50 M) [1] [nM] | U251 CTG (IC50 M) [1] [nM] | EC50 [2] [nM] | Quotient signal (B7)/signal (buffer) [3] | Quotient signal (B7)/signal (buffer) [4] | Quotient signal (B7)/signal (buffer) [5]
1 | 208-isotype control (antibody) | 137 | 77.6 |  |  |  | 
2 | B1 |  |  | 0.661 | < 1.5 | < 1.5 | 116
3 | B2 |  |  | 1.23 | < 1.5 | < 1.5 | 118
4 | B3 |  |  | 0.847 | < 1.5 | < 1.5 | 109
